Molecular target: T1, human interleukin 12 (human, UniProt P29459 23-219; P29460 23-328)
T1 construct: heterodimer of p35 and p40 linked by a disulfide bridge; also called hIL-12; IL-12
T1 sequence (looked up) 1: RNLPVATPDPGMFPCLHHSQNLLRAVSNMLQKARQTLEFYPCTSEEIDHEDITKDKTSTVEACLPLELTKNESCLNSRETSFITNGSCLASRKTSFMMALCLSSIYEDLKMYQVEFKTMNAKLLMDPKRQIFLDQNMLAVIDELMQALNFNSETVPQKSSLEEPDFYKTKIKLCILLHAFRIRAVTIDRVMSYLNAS
T1 sequence (looked up) 2: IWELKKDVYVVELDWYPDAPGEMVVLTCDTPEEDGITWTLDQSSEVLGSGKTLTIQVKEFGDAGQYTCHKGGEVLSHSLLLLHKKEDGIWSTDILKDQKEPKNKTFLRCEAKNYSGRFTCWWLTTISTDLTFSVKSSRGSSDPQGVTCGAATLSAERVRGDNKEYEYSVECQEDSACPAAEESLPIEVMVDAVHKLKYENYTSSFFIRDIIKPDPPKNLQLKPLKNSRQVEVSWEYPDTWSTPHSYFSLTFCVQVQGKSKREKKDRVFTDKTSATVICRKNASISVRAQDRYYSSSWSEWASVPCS
Experiment: SPR (BIAcore)

B1: 170-21 (antibody, V domains shown)
VH: QVQLVQSGGGVVQPGRSLRLSCAASGFTFSSYGMHWVRQAPGKGLEWVAFIRYDGSNKYYADSVKGRFTISRDNSKNTLYLQMKSLRAEDTAVYYCTTHGSQDNWGQGTMVTVSS
VL: SYVLTQPPSVSGTPGQRVTISCSGGRSNIGSNTVKWYQQLPGTAPKLLIYGNDQRPSGVPDRFSGSKSGTSASLAITGVQAEDEADYYCQSYDRGFTGPRLFGTGTKVTVL
For B1, the koff was 0.00389 s⁻¹.

B2: 73-D4 (antibody, V domains shown)
VH: QVQLVQSGGGVVQPGRSLRLSCAASGFTFSSYGMHWVRQAPGKGLEWVAFIRYDGSNKYYADSVKGRFTISRDNSKNTLYLQMKSLRAEDTAVYYCTTSGSYDYWGQGTMVTVSS
VL: SYVLTQPPSVSGTPGQRVTISCSGGRSNIGSNTVKWYQQLPGTAPKLLIYGNDQRPSGVPDRFSGSKSGTSASLAITGVQAEDEADYYCHSYDTKFTGSRVFGTGTKVTVLG
With B2 the koff was 0.00536 s⁻¹.

B3: 73-C2 (antibody, V domains shown)
VH: QVQLVQSGGGVVQPGRSLRLSCAASGFTFSSYGMHWVRQAPGKGLEWVAFIRYDGSNKYYADSVKGRFTISRDNSKNTLYLQMKSLRAEDTAVYYCTTSGSYDYWGQGTMVTVSS
VL: SYVLTQPPSVSGTPGQRVTISCSGGRSNIGSNTVKWYQQLPGTAPKLLIYGNDQRPSGVPDRFSGSKSGTSASLAITGVQAEDEADYYCQSYDSEFTGSRVFGTGTKVTVLG
B3 showed a koff of 0.00379 s⁻¹.

B4: 73-H3 (antibody, V domains shown)
VH: QVQLVQSGGGVVQPGRSLRLSCAASGFTFSSYGMHWVRQAPGKGLEWVAFIRYDGSNKYYADSVKGRFTISRDNSKNTLYLQMKSLRAEDTAVYYCTTSGSYDYWGQGTMVTVSS
VL: SYVLTQPPSVSGTPGQRVTISCSGGRSNIGSNTVKWYQQLPGTAPKLLIYGNDQRPSGVPDRFSGSKSGTSASLAITGVQAEDEADYYCHSYDNGFTGSRVFGTGTKVTVLG
Work on B4 yielded a koff of 0.00685 s⁻¹.

B5: 73-D5 (antibody, V domains shown)
VH: QVQLVQSGGGVVQPGRSLRLSCAASGFTFSSYGMHWVRQAPGKGLEWVAFIRYDGSNKYYADSVKGRFTISRDNSKNTLYLQMKSLRAEDTAVYYCTTSGSYDYWGQGTMVTVSS
VL: SYVLTQPPSVSGTPGQRVTISCSGGRSNIGSNTVKWYQQLPGTAPKLLIYGNDQRPSGVPDRFSGSKSGTSASLAITGVQAEDEADYYCHSSDSGFTGSRVFGTGTKVTVLG
Work on B5 yielded a koff of 0.00357 s⁻¹.

B6: 73-E3 (antibody, V domains shown)
VH: QVQLVQSGGGVVQPGRSLRLSCAASGFTFSSYGMHWVRQAPGKGLEWVAFIRYDGSNKYYADSVKGRFTISRDNSKNTLYLQMKSLRAEDTAVYYCTTSGSYDYWGQGTMVTVSS
VL: SYVLTQPPSVSGTPGQRVTISCSGGRSNIGSNTVKWYQQLPGTAPKLLIYGNDQRPSGVPDRFSGSKSGTSASLAITGVQAEDEADYYCQSYDSDFTGSRVFGTGTKVTVLG
B6 showed a koff of 0.00498 s⁻¹.

B7: 73-E6 (antibody, V domains shown)
VH: QVQLVQSGGGVVQPGRSLRLSCAASGFTFSSYGMHWVRQAPGKGLEWVAFIRYDGSNKYYADSVKGRFTISRDNSKNTLYLQMKSLRAEDTAVYYCTTSGSYDYWGQGTMVTVSS
VL: SYVLTQPPSVSGTPGQRVTISCSGGRSNIGSNTVKWYQQLPGTAPKLLIYGNDQRPSGVPDRFSGSKSGTSASLAITGVQAEDEADYYCHSYESGFTGSRVFGTGTKVTVLG
B7 was tested, and the koff was 0.00417 s⁻¹.

B8: 73-F3 (antibody, V domains shown)
VH: QVQLVQSGGGVVQPGRSLRLSCAASGFTFSSYGMHWVRQAPGKGLEWVAFIRYDGSNKYYADSVKGRFTISRDNSKNTLYLQMKSLRAEDTAVYYCTTSGSYDYWGQGTMVTVSS
VL: SYVLTQPPSVSGTPGQRVTISCSGGRSNIGSNTVKWYQQLPGTAPKLLIYGNDQRPSGVPDRFSGSKSGTSASLAITGVQAEDEADYYCQSYDAPWSGSRVFGTGTKVTVLG
B8 was tested, and the koff was 0.00708 s⁻¹.

B9: 73-B2 (antibody, V domains shown)
VH: QVQLVQSGGGVVQPGRSLRLSCAASGFTFSSYGMHWVRQAPGKGLEWVAFIRYDGSNKYYADSVKGRFTISRDNSKNTLYLQMKSLRAEDTAVYYCTTSGSYDYWGQGTMVTVSS
VL: SYVLTQPPSVSGTPGQRVTISCSGGRSNIGSNTVKWYQQLPGTAPKLLIYGNDQRPSGVPDRFSGSKSGTSASLAITGVQAEDEADYYCHSSESGFTGSRVFGTGTKVTVLG
B9 was tested, and the koff was 0.00207 s⁻¹.

B10: 73-G5 (antibody, V domains shown)
VH: QVQLVQSGGGVVQPGRSLRLSCAASGFTFSSYGMHWVRQAPGKGLEWVAFIRYDGSNKYYADSVKGRFTISRDNSKNTLYLQMKSLRAEDTAVYYCTTSGSYDYWGQGTMVTVSS
VL: SYVLTQPPSVSGTPGQRVTISCSGGRSNIGSNTVKWYQQLPGTAPKLLIYGNDQRPSGVPDRFSGSKSGTSASLAITGVQAEDEADYYCHSSDSDSTGSRVFGTGTKVTVLG
For B10, the koff was 0.00601 s⁻¹.

B11: 73-F6 (antibody, V domains shown)
VH: QVQLVQSGGGVVQPGRSLRLSCAASGFTFSSYGMHWVRQAPGKGLEWVAFIRYDGSNKYYADSVKGRFTISRDNSKNTLYLQMKSLRAEDTAVYYCTTSGSYDYWGQGTMVTVSS
VL: SYVLTQPPSVSGTPGQRVTISCSGGRSNIGSNTVKWYQQLPGTAPKLLIYGNDQRPSGVPDRFSGSKSGTSASLAITGVQAEDEADYYCHSYDMGFTGSRVFGTGTKVTVLG
Work on B11 yielded a koff of 0.00587 s⁻¹.

B12: 73-G2 (antibody, V domains shown)
VH: QVQLVQSGGGVVQPGRSLRLSCAASGFTFSSYGMHWVRQAPGKGLEWVAFIRYDGSNKYYADSVKGRFTISRDNSKNTLYLQMKSLRAEDTAVYYCTTSGSYDYWGQGTMVTVSS
VL: SYVLTQPPSVSGTPGQRVTISCSGGRSNIGSNTVKWYQQLPGTAPKLLIYGNDQRPSGVPDRFSGSKSGTSASLAITGVQAEDEADYYCHTNDSGFTGSRVFGTGTKVTVLG
In the case of B12, the koff is reported as 0.00398 s⁻¹.

B13: 73-C5 (antibody, V domains shown)
VH: QVQLVQSGGGVVQPGRSLRLSCAASGFTFSSYGMHWVRQAPGKGLEWVAFIRYDGSNKYYADSVKGRFTISRDNSKNTLYLQMKSLRAEDTAVYYCTTSGSYDYWGQGTMVTVSS
VL: SYVLTQPPSVSGTPGQRVTISCSGGRSNIGSNTVKWYQQLPGTAPKLLIYGNDQRPSGVPDRFSGSKSGTSASLAITGVQAEDEADYYCHSHDRDFTGSRVFGTGTKVTVLG
B13 showed a koff of 0.00484 s⁻¹.

B14: 73-G3 (antibody, V domains shown)
VH: QVQLVQSGGGVVQPGRSLRLSCAASGFTFSSYGMHWVRQAPGKGLEWVAFIRYDGSNKYYADSVKGRFTISRDNSKNTLYLQMKSLRAEDTAVYYCTTSGSYDYWGQGTMVTVSS
VL: SYVLTQPPSVSGTPGQRVTISCSGGRSNIGSNTVKWYQQLPGTAPKLLIYGNDQRPSGVPDRFSGSKSGTSASLAITGVQAEDEADYYCHSYDTRFTGSRVFGTGTKVTVLG
For B14, the koff was 0.0035 s⁻¹.

B15: 73-H2 (antibody, V domains shown)
VH: QVQLVQSGGGVVQPGRSLRLSCAASGFTFSSYGMHWVRQAPGKGLEWVAFIRYDGSNKYYADSVKGRFTISRDNSKNTLYLQMKSLRAEDTAVYYCTTSGSYDYWGQGTMVTVSS
VL: SYVLTQPPSVSGTPGQRVTISCSGGRSNIGSNTVKWYQQLPGTAPKLLIYGNDQRPSGVPDRFSGSKSGTSASLAITGVQAEDEADYYCQSYDSGFTGSRVFGTGTKVTVLG
With B15 the koff was 0.00593 s⁻¹.

B16: 73-F5 (antibody, V domains shown)
VH: QVQLVQSGGGVVQPGRSLRLSCAASGFTFSSYGMHWVRQAPGKGLEWVAFIRYDGSNKYYADSVKGRFTISRDNSKNTLYLQMKSLRAEDTAVYYCTTSGSYDYWGQGTMVTVSS
VL: SYVLTQPPSVSGTPGQRVTISCSGGRSNIGSNTVKWYQQLPGTAPKLLIYGNDQRPSGVPDRFSGSKSGTSASLAITGVQAEDEADYYCQSYDSDFTGSKVFGTGTKVTVLG
B16 was tested, and the koff was 0.00374 s⁻¹.

B17: 73-D1 (antibody, V domains shown)
VH: QVQLVQSGGGVVQPGRSLRLSCAASGFTFSSYGMHWVRQAPGKGLEWVAFIRYDGSNKYYADSVKGRFTISRDNSKNTLYLQMKSLRAEDTAVYYCTTSGSYDYWGQGTMVTVSS
VL: SYVLTQPPSVSGTPGQRVTISCSGGRSNIGSNTVKWYQQLPGTAPKLLIYGNDQRPSGVPDRFSGSKSGTSASLAITGVQAEDEADYYCHSYDSGFTGSRVFGTGTKVTVLG
Work on B17 yielded a koff of 0.00399 s⁻¹.

B18: 73-C6 (antibody, V domains shown)
VH: QVQLVQSGGGVVQPGRSLRLSCAASGFTFSSYGMHWVRQAPGKGLEWVAFIRYDGSNKYYADSVKGRFTISRDNSKNTLYLQMKSLRAEDTAVYYCTTSGSYDYWGQGTMVTVSS
VL: SYVLTQPPSVSGTPGQRVTISCSGGRSNIGSNTVKWYQQLPGTAPKLLIYGNDQRPSGVPDRFSGSKSGTSASLAITGVQAEDEADYYCQSYDTGFTGSRVFGTGTKVTVLG
B18 was tested, and the koff was 0.00396 s⁻¹.

B19: 73-G6 (antibody, V domains shown)
VH: QVQLVQSGGGVVQPGRSLRLSCAASGFTFSSYGMHWVRQAPGKGLEWVAFIRYDGSNKYYADSVKGRFTISRDNSKNTLYLQMKSLRAEDTAVYYCTTSGSYDYWGQGTMVTVSS
VL: SYVLTQPPSVSGTPGQRVTISCSGGRSNIGSNTVKWYQQLPGTAPKLLIYGNDQRPSGVPDRFSGSKSGTSASLAITGVQAEDEADYYCQSYNTDFTGSRVFGTGTKVTVLG
B19 showed a koff of 0.0063 s⁻¹.

B20: 73-G4 (antibody, V domains shown)
VH: QVQLVQSGGGVVQPGRSLRLSCAASGFTFSSYGMHWVRQAPGKGLEWVAFIRYDGSNKYYADSVKGRFTISRDNSKNTLYLQMKSLRAEDTAVYYCTTSGSYDYWGQGTMVTVSS
VL: SYVLTQPPSVSGTPGQRVTISCSGGRSNIGSNTVKWYQQLPGTAPKLLIYGNDQRPSGVPDRFSGSKSGTSASLAITGVQAEDEADYYCQSYDMRFTGSRVFGTGTKVTVLG
B20 was tested, and the koff was 0.00658 s⁻¹.
